Our source for the % Cleavage of TcpA prepilin by TcpJ in the in vitro cleavage assay values is US20050201999A1.

For this assay, the target named is TcpJ, type 4 prepilin peptidase of Vibrio cholerae (wild-type) (Vibrio cholerae).

The substance Aprotinin (from UniProt P00974) yielded a % Cleavage of TcpA prepilin by TcpJ in the in vitro cleavage assay of 100%.
